For this data set, the target named is T1, LeuO (rLeuO) (Vibrio vulnificus MO6-24/O?) (UniProt A0A087INQ4).
T1 sequence: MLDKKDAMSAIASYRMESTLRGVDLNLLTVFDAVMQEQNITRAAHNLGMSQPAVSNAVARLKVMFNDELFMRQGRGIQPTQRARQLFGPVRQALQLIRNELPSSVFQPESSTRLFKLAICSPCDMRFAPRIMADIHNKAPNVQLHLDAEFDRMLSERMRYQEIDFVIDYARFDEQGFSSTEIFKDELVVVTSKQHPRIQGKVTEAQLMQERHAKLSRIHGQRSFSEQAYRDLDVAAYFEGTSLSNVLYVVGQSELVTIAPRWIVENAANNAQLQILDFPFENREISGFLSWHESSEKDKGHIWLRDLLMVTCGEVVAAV
Briefly: EMSA. The following applies: 10 mM Tris-HCl pH 7.4, 10 mM KCl, 1 mM EDTA, 0.1 mM DTT, 50 ug/ml BSA, 5% glycerol, 1 ug poly(dI-dC), 10 ng probe in 20 ul, 30 min at 37 C; 6% neutral …. For orientation: In EMSA bound probe runs differently from free probe, usually more slowly.

Here are results for one sequence from paper PMC6105893.

With “GAGTTTGACGCTAAAAAATAGTGATGTGCAGCAAAAATAAGTAAAAGTTTACGCTGATAGGCTCGAAAAGGCTTGTCAGCGTTTTTTTTGGGAGCTAAGTTAGAGCTCGATGGCTGCCAGCCCTTTTAAGATAAGGCTTGGCGCTAATTTTTAGTATTAATGGAACGAAAGTCATCTAAAAAAATAATCACAGATGGCACAAAGGGGAATCACAGTGAACAAAACTCAACTAGTAGAATCAATCGCTGCAAACGCAGAT (double strand) [vhuB upstream region]”, the binding result was “binds”.
